Patent US12467929

How the values were obtained:
[1] = molecular target: recombinant UBE3A protein (Homo sapiens (Human)) (UniProt Q05086); assay: 2-step Simoa; capture GTX; UBE3A 0.122 ng/ml
[2] = molecular target: recombinant UBE3A protein (Homo sapiens (Human)) (UniProt Q05086); assay: 3-step Simoa; capture GTX; UBE3A 0.488 ng/ml
[3] = molecular target: recombinant UBE3A protein (Homo sapiens (Human)) (UniProt Q05086); assay: 2-step Simoa; capture GTX; UBE3A 1.95 ng/ml
[4] = molecular target: recombinant UBE3A protein (Homo sapiens (Human)) (UniProt Q05086); assay: Simoa head-to-head, Table 10; capture MS 2F6; UBE3A 0.032 ng/ml
[5] = molecular target: recombinant UBE3A protein (Homo sapiens (Human)) (UniProt Q05086); assay: Simoa; capture GTX; SBG 150 pm; UBE3A 0.00128 ng/ml
[6] = molecular target: recombinant UBE3A protein (Homo sapiens (Human)) (UniProt Q05086); assay: 3-step Simoa, 120 min bead step; capture GTX; UBE3A 20.0 ng/ml
[7] = molecular target: recombinant UBE3A protein (Homo sapiens (Human)) (UniProt Q05086); assay: 3-step Simoa, 120 min bead step; capture GTX; UBE3A 0.800 ng/ml
[8] = molecular target: recombinant UBE3A protein (Homo sapiens (Human)) (UniProt Q05086); assay: Simoa; capture GTX; 3E5 0.2 ug/ml; UBE3A 0.0320 ng/ml
[9] = molecular target: recombinant UBE3A protein (Homo sapiens (Human)) (UniProt Q05086); assay: Simoa; capture GTX + helper beads; 3E5 0.1 ug/ml; UBE3A 0.0320 ng/ml
[10] = molecular target: recombinant UBE3A protein (Homo sapiens (Human)) (UniProt Q05086); assay: Simoa head-to-head, Table 11; capture GTX; UBE3A 0.16 ng/ml
[11] = molecular target: recombinant UBE3A protein (Homo sapiens (Human)) (UniProt Q05086); assay: Simoa; capture GTX; SBG 75 pm; UBE3A 4.00 ng/ml
[12] = molecular target: recombinant UBE3A protein (Homo sapiens (Human)) (UniProt Q05086); assay: Simoa; capture GTX; 3E5 0.2 ug/ml; UBE3A 0.00128 ng/ml
[13] = molecular target: recombinant UBE3A protein (Homo sapiens (Human)) (UniProt Q05086); assay: Simoa; capture GTX; 3E5 0.1 ug/ml; UBE3A 0.0320 ng/ml
[14] = molecular target: recombinant UBE3A protein (Homo sapiens (Human)) (UniProt Q05086); assay: Simoa; capture GTX; 3E5 0.8 ug/ml; UBE3A 0.00640 ng/ml
[15] = molecular target: recombinant UBE3A protein (Homo sapiens (Human)) (UniProt Q05086); assay: Simoa; capture GTX, no helper beads; 3E5 0.4 ug/ml; UBE3A 0.160 ng/ml
[16] = molecular target: recombinant UBE3A protein (Homo sapiens (Human)) (UniProt Q05086); assay: Simoa; capture GTX, no helper beads; 3E5 0.2 ug/ml; UBE3A 0.160 ng/ml
[17] = molecular target: recombinant UBE3A protein (Homo sapiens (Human)) (UniProt Q05086); assay: Simoa; capture GTX, no helper beads; 3E5 0.1 ug/ml; UBE3A 0.00640 ng/ml
[18] = molecular target: recombinant UBE3A protein (Homo sapiens (Human)) (UniProt Q05086); assay: Simoa head-to-head, Table 10; capture MS 2F6; UBE3A 20.0 ng/ml
[19] = molecular target: recombinant UBE3A protein (Homo sapiens (Human)) (UniProt Q05086); assay: Simoa head-to-head, Table 10; capture MS 2F6; UBE3A 500 ng/ml
[20] = molecular target: recombinant UBE3A protein (Homo sapiens (Human)) (UniProt Q05086); assay: Simoa; capture GTX + helper beads; 3E5 0.1 ug/ml; UBE3A 0.00128 ng/ml

UniProt Q05086, sequence (Q05086 whole entry): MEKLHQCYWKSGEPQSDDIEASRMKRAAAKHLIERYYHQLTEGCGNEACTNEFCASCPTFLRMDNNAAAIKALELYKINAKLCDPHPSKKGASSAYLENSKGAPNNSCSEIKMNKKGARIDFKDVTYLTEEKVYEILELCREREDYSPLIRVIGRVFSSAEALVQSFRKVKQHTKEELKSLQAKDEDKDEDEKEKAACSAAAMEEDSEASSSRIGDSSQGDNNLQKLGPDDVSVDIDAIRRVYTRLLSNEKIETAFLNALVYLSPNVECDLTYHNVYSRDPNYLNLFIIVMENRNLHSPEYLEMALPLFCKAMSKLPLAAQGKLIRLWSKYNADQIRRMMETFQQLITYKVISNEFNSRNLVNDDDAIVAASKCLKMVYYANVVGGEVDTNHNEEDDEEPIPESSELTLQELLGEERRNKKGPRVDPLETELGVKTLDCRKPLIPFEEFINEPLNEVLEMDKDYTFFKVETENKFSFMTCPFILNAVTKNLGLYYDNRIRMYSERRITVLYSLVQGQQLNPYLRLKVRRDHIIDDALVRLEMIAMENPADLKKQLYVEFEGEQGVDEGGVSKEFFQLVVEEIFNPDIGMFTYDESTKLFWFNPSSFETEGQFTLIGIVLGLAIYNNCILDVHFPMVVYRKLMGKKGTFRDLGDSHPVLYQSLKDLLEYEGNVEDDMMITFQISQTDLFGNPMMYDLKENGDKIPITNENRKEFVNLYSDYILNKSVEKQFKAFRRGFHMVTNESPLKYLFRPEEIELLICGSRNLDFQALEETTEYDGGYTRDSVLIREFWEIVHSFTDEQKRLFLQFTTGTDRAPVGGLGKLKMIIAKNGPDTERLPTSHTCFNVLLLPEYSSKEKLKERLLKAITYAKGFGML

NB500-240 (Novus) (antibody) was tested, and the AEB1 [1] was 0.004, the AEB2 [1] was 0.0037 and the Ave AEB [1] was 0.0039. It also gave a Signal to Background [1] of 1.18, an AEB1 [2] of 0.0023 and an AEB2 [2] of 0.0026. The Ave AEB [2] was 0.0025, the Signal to Background [2] was 0.759 and the AEB1 [3] was 0.018. For the same substance, the AEB2 [3] was 0.0187, the Ave AEB [3] was 0.0184 and the Signal to Background [3] was 5.62.

“anti-UBE3A antibody 3E5 (SAB1404508-100 ug, Millipore-Sigma)” showed an AEB1 [4] of 0.0162, an AEB2 [4] of 0.0146 and an Ave AEB [4] of 0.0154. It also gave a Signal to Background [4] of 1.14, an AEB1 [5] of 0.013 and an AEB2 [5] of 0.018. The AEB3 [5] was 0.0134, the Average AEB [5] was 0.0148 and the Signal to Background [5] was 1.12. For the same substance, the AEB1 [6] was 2.8, the AEB2 [6] was 2.88 and the Ave AEB [6] was 2.84. For the same substance, the Signal to Background [6] was 1660, the AEB1 [7] was 0.151 and the AEB2 [7] was 0.154. It also gave an Ave AEB [7] of 0.152, a Signal to Background [7] of 89.4 and an AEB1 [8] of 0.0619. For the same substance, the AEB2 [8] was 0.0621, the AEB3 [8] was 0.0587 and the Average AEB [8] was 0.0609. It also gave a Signal to Background [8] of 1.55, an AEB1 [9] of 0.0159 and an AEB2 [9] of 0.0108. It also gave an Average AEB [9] of 0.0134, a Signal to Background [9] of 2.33 and an AEB1 [10] of 0.0288. The AEB2 [10] was 0.0291, the Ave AEB [10] was 0.0289 and the Signal to Background [10] was 3.53. For the same substance, the AEB1 [11] was 0.459, the AEB2 [11] was 0.46 and the AEB3 [11] was 0.458. The Average AEB [11] was 0.459, the Signal to Background [11] was 105 and the AEB1 [12] was 0.0457. It also gave an AEB2 [12] of 0.0439, an AEB3 [12] of 0.0421 and an Average AEB [12] of 0.0439. It also gave a Signal to Background [12] of 1.12, an AEB1 [13] of 0.0351 and an AEB2 [13] of 0.04. The AEB3 [13] was 0.0401, the Average AEB [13] was 0.0384 and the Signal to Background [13] was 1.99. It also gave an AEB1 [14] of 0.114, an AEB2 [14] of 0.127 and an AEB3 [14] of 0.117. For the same substance, the Average AEB [14] was 0.12, the Signal to Background [14] was 0.976 and the AEB1 [15] was 0.1. It also gave an AEB2 [15] of 0.108, an Average AEB [15] of 0.104 and a Signal to Background [15] of 5.33. The AEB1 [16] was 0.0675, the AEB2 [16] was 0.0686 and the Average AEB [16] was 0.068. It also gave a Signal to Background [16] of 7.03, an AEB1 [17] of 0.0087 and an AEB2 [17] of 0.0092. It also gave an Average AEB [17] of 0.0089, a Signal to Background [17] of 1.56 and an AEB1 [18] of 0.514. It also gave an AEB2 [18] of 0.552, an Ave AEB [18] of 0.533 and a Signal to Background [18] of 39.4. For the same substance, the AEB1 [19] was 11, the AEB2 [19] was 10.9 and the Ave AEB [19] was 10.9. The Signal to Background [19] was 809, the AEB1 [20] was 0.0065 and the AEB2 [20] was 0.0083. The Average AEB [20] was 0.0074 and the Signal to Background [20] was 1.29.
